# From US20260256840A1
# Key:
# [1] = target: NY-ESO TCR with the D111K modification in the TRBC constant region (human); experiment: anti-TCR negative selection of T cells, flow cytometry
# [2] = target: HIT receptor with the D111K mutation in the TCR beta constant region (human); experiment: anti-TCR bead negative selection of T cells, cell count and flow cytometry (FIG. 7)
# [3] = target: NY-ESO TCR with the D111K modification in the TRBC constant region (human); experiment: flow cytometry of CD8+ T cells, FITC-BW242/412 against PE NY-ESO dextramer (FIG. 9)
# [4] = target: unmodified NY-ESO TCR (wild-type TCR beta constant domain) (human); experiment: as above
substance,measurement,setting,value
BW242/412 anti-TCR antibody,% recovery post purification (BW242/412 negative selection),[1],80%
same,% recovery of HIT+ cells after BW242/412 negative selection (cells not bound by the antibody),[2],57.7%
same,% of the NY-ESO dextramer-positive population not stained by the anti-TCR antibody,[3],60%
same,% of the NY-ESO dextramer-positive population not stained by the anti-TCR antibody,[4],0%
